Source: patent US20260347475 (published 2026)
Substitutions are numbered along the chain they refer to.

B1: P-1150 (antibody, V domains shown)
VH: QVQLVQSGVEVKKPGASVKVSCKASGYTFTNYYMYWVRQAPGQGLEWMGGINPSNGGTNFAQKFQGRVTLTTDSSTTTAYMELKSLQFDDTAVYYCARRDYRFDMGFDYWGQGTTVTVSS
VL: EIVLTQSPATLSLSPGERATLSCRASQGVSTSGYSYLAWYQQKPGQAPRLLIYLASYRASGVPARFSGSGSGTDFTLTISSLEPEDFAVYYCQHSRDLPLTFGGGTKVEIKR
B2: P-1153 (antibody, V domains shown)
VH: B1 VH with F60Y
VL: B1 VL
B3: P-1148 (antibody, V domains shown)
VH: B1 VH
VL: B1 VL with A38H
B4: P-1151 (antibody, V domains shown)
VH: B1 VH with F60Y
VL: B1 VL with A38H

The binders below were run against human PD1 (human, UniProt Q15116) (assay: ELISA).
Chain of human PD1 (Q15116 25-167): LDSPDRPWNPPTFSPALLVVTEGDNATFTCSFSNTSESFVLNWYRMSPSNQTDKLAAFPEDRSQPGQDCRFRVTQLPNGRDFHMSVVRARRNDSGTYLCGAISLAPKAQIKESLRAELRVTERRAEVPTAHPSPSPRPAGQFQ

EC50 | Binder
0.088 nM | B1
0.11 nM | B2
0.093 nM | B3
0.065 nM | B4
